Assay: yeast display, Sf9 membrane polyspecificity reagent, FACS + sequencing; frameworks hold sequencing errors
In short: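 Galactose induction of a Saccharomyces cerevisiae BJ5465 synthetic nanobody display library ran 36–48 hours. The cells were then stained for 1 hour at 4 °C with 10% biotinylated, detergent-solubilized Sf9 membrane reagent, pulled down on streptavidin microbeads and FACS-sorted into low and high (top ~1%) gates on expression and reagent-binding fluorescence. Labels for polyreactivity follow the gate of origin.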

Row | Sequence | polyreactivity (PSR sort gate)
1 | QVQLVESGGGLVQAGGSLRLSCAASGRTFTPYAMGWYRQAPGKERELVATISGGGSTHYADSVKGRFTISRDNAKNTVYIQRNSLKPEDTAVYYCSPSRDTVGRGPIQRDYWGQGTQVTVSS | low polyreactivity
2 | QVQLVESGGGLVQAGGSLRLSCAASGRSFYYNAMGWYRQAPGKERELVAAIRSSGGTTYYADSVKGRFTISRDNAKNTVYLQMNSLKPEDTAVYYCAKDSNRYSYYSPYDSWGQGTQVTVSS | low polyreactivity
3 | QVQLVESGGGLVQAGGSLRLSCAASGRTFGYYTMGWYRQAPGKERELVAAISWNGDDTYYADSVKGRFTISRDNAKNTVYLQMNSLKPEDTAVYYCAKDFLGNYYWTDVYTYGGEGDYWGQGTQVTVSS | low polyreactivity
4 | QVQLVESGGGLVQAGGSLRLSCAASGYTFTIYALGWYRQAPGKEMELVASISIDGSTYYADSVKGRFTISRDNAKNTVYLQMNSLKPEDTAVYYCAADYYYYTPGFDYWGQGTQVTVSS | low polyreactivity
5 | QVQLVESGGGLVQAGGSLRLSCAASGRIFVHYASGWYRQAPGKERELVAAISWNGGRTFYADSVKGRFTISRDNAKNTVYLQMNSLKPEDTAVYYCAARSRYSLDYWGQGTQVTVSS | high polyreactivity
6 | QVQLVESGGGLVQAGGSLRLSCAASGFTFEDNTMGGYRQAPGKERELVAAITWGGVSTYYADSVKGRFTISRDNAKKTVYLQMNSLKPEDTAVYYCARDYDVYTVFLMDYWGQGTQVTVSS | low polyreactivity
7 | QVQLVESGGGLVQAGGSLRLSCAASGSTFRYYARGWYRPAPGKERELVAAITRSGGSTYYADSVKGRFTISRDNAKNTVYLQMNSLKPEDTAVYYCAARWAYPHKTYGTEQTEYDYWGQGTQVTVSS | high polyreactivity
8 | QVQLVESGGGLVQAGGSLRVSCAASGSIFHFYTMGWYRQAPGKERELVAAISSTGSTNYADSVKGRFTISRDNAKNTVYLQMNSLKPEDTAVYYCAAVGTYLAGYQFDYWGQGTQVTVSS | low polyreactivity
9 | QVQLVESGGGLVQAGGSLRLSCAASGRTFRLYAMGWYRQAPGKERALVAAITGVGSTNYADSVKGRFTISRDNAKNTVYLQMNSLKPEDTAVYYCAAYYWSQVLIQGYYSWGQGTQVTVSS | high polyreactivity
10 | QVQLVESGGGLVQAGGSLRISCAASGYIFTGNAMGWYRKAPGKEREFVAAISWSGGSTYYADSVKGRFTISRDNAKNTVYLQMNSLKPEDTAVYYCNKYRPYGRIYHLAYGRDYWGQGTQVTVSS | high polyreactivity
11 | QVQLVESGGGLVQAGGSLRLSCAASGLIFTAYAMGWYRQAPGKERELVAAIDWRGGSTSYADSVKGRFTISRDNAKNTVYLQMNSLKPEDTAVYYCAADYYSKYVRFGYWGQGTQVTVSS | high polyreactivity
12 | QVQLVESGRGLVQAGGSLPLSCAASGRTFPSNTMGWYRPAPGKERELVAAINRSGGTTYYADSVKGRCTISRDKAKNTVYLQINSLKPEDTAVYYCAVLSRYKACRKYDYWGQCTQVTVSS | high polyreactivity
13 | QVQLVESAGALVQAGGSLRLSCAASGSTYWRYTMGWYRQAPGKERELVAAISTRGGSTTYADSVKGRFTISRDNAKNTVYLQMNSLKPEDTAVYYCAAGRQYRFDFWGQGTQVTVSS | high polyreactivity
14 | QVQLVESGGGLVQAGGSLRLSCAASGIIFRYYAMGWYRQAPGKEREWVAAISSSGVSTYYADSVKGRFTISRDNAKNNVYLQMNSLKPEDTAVYYCAAVTTWRMDYWGQGTQVTVSS | high polyreactivity
15 | QVQLVESGGGLVQAGGSLRLSCAASGRTFIINTMGWYRQAPGTERQLVAAISKNGATTNYADSVKGRFTISRDNAKNTVYLQMNSLKPVDTAVYYCNARYSGYLRLDYWGQGTQVTVSS | low polyreactivity
16 | QVQLVESGGGLVQAGGSLRLSCAASGSIFFYNTMGWYRQAPGKERELVAAISASGGRTYYADSVKGRFTISRDNAKNTVYLQMNSLKPEDTAVYYCAVRVPYRGYTRYDYWGQGTQVTVSS | high polyreactivity
17 | QVQLVESGGGLVQAGGSLRLSCAASGRIFYFYAMGWYRQAPGKERELVAAISTSGGSTYYPDSVKGRFTISRDNAKNTVYLQMNSLKQEDTAVYYCAARFRYYGSEYDYWGQGTQVTVSS | low polyreactivity
18 | QDQLVESGGGLVQAGGSLPLSCAASGLTFDYYVMGGYRQAPGKERELVATISWSGDITYYADSVKGRFTISRDNAKNTVYLQMNSLKPEDTAVYYCAADPYSWREGGYWGQGTQVTVSS | low polyreactivity
19 | QVQLVESGGGLVQAGGSLRLICAASGSILNWYAMGWYRQAPGKERELVAAINRGTGTYYADSVKGRFTISRDNAKNTVYLQMISLKTEDTAVYYCAAEWYVYDFEFYYWGQGTQVTVSS | high polyreactivity
20 | QVHLVESGGGLVQEGGSLPLTCAASGSTLRYYDMGWYRQPPRKERELFAAITTSGDDTYYADSVKRLFTISRDNAKYIVYLQMNSLKPEDTAVYYCAADGYGGHKYELESWGQGTQVTVSS | low polyreactivity
21 | QVQLVESGGGLVQAGGSLRLSCAASGFIFVRNAMGWYRQAPGKERELVAAISSRGGRTYYADSVKGRFTISRDNAKNTVYLQMNSLKPEDTAVYYCNADRDTQGDGYDYWGQGTQVTVSS | high polyreactivity

Row | Sequence | polyreactivity (PSR sort gate)
22 | QVQLVESGGGLVQAGGSLRLSCAASGSTFYPYALGWYRQAHGKVRELVATISFSGGRTYYADSVKGRFTISRDNAKNTVYLQMHSLKPEDTAVYYCAAVSYWHDGHRGNYWGQGTQVTVSS | low polyreactivity
23 | QVQLVESGGGLVQAGGSLRLSCAASGRIFQGYAMVWYRQAPGKERELVARITSGSNTNYADSVKGRFTISRDNAKNTVYLQMNSLKPEDTAVYYCAKEPVGSVRYGRFQQDDYWGQGTQVTVSS | low polyreactivity
24 | QVQLVESGGGLVQAGGSLRLSCDASGRIFYRYTMGWYRQAPGKERELVAAITDDSSTDYADSVKGRFTISRDNAKNTVYLQMNSLKPEDTAVYYCNADWYWKYDYWGQGTQVTVSS | low polyreactivity
25 | QVQLVESGGGLVQAGGSLRLSCAASGRTFRYYTMGWYRQAPGKERELVAAITVGSRTNYADSEKGRFTISRDNAKNTVYFQMNSLKAEDTAVYYCARRSYYQYRYDYWGQGTQVTVSS | high polyreactivity
26 | QVQLVESGGGLVQAGGSLRLSCAASGFIFYTNAMAWYRQAPGNERQLVATLTTSGGRTYYADSVKGRFTISRDNAKNSVYLQMNSLKPEDTAVYYCATRYVVIEYDYWGQGTEVTVSS | low polyreactivity
27 | QVQLVESGGGLVQAGGSLRLSCAASGSTFGKNAMGWYRQAPGKERELVAAISTSGTRTFFADSVKGRFTISRDNAKNTVYLQMNSLKPEDTAFYYWNAGRSSRAYYYWGQGTQVTVSS | high polyreactivity
28 | QVQHVESGGGLVQAGGSLRLSCAASGRTFAHYAMGWYRQAPGKERELVAAISWGGTRTYYADSVKGRFTISRDNAKNTVYLQMNSLKPEDTAVYYCAADYGYQDDYWGQGTQVTVSS | low polyreactivity
29 | PVQLVESGGGIVQAGGSLRLSCAASGRTFRYNPMGWSRQAPGKERELVAAITYSGGSTYYADSVKGRFTISRDNEKNTVYLQMNSMKPEETAVYYCAAGWRRFDYWGQGTQVTVSS | high polyreactivity
30 | QVQLVESGGGLVQAGGSLRLSCAASGNIFYKNTMGWYRQAPGKERELVAAISVSGGGTYYADSVKGRFTISRDNAKNTVYLQMNSLKPEDTAVYYCAASHRRSGGQPRYYYWGQGTQVSVSS | high polyreactivity
31 | QVQLVESGGGLVQAGGSLRLSCAASGYIFKPNTMGWYRQAPGKERELVAAITRGGRTKYADSVKGRFTISRDNAKNTVYLQMNSLKPEDTAVYYCAAALPVQYRDMYSWGQGTQVTVSS | high polyreactivity
32 | QVQLVESGGGLVQAGGSLRLSCAASGSIFAQYGLGWYRQAPGKERELVADISGPGVSTYYADSVKGRFTISRDNAKNTVYLQMNSLKPEDSAVYYCAADYYYPYYWGQGTQVTVSS | low polyreactivity
33 | QVQLVESGGGLVQAGGSLRLSFAASGSIFGPYVMGWYRQAPGKERELVAAISKSGGSTYYADSVKGRFTISRDNAKNTVYLQMNSLKPEDTAVYYCATDYLGGGKRYYYWGQGTQVTVSS | high polyreactivity
34 | QVQLVESGGGLVQAGGSLRLSCAASGSTFFLYMGWYRQAHGKERELVAAITVSGGSTYYADSVKGRFTISRDNAKNTVYLQMNSLKPEDTAVYYCNADWVMRYDYWGQGTQVTVSS | low polyreactivity
35 | QVHIVESGGGLVQAGGSLRLSCAASGLIFYLYTRGWSRQATGKERELVAAISRSGTITYYADSVKGRFTISRDNAKNTVYLQMNSLKPEDTAVYYCAATYTYIIGTRYDYWGQGTQVTVSS | high polyreactivity
36 | QVQHVESGRGLVQAGGSLRLSCAASGRIFNPYAMGRYRQAPGKERELVAAISRGGRTYYADSVKGRFTISRDNAKNTVYLQMNSLKPEDTAVYYCNAGRGLREDDYWGQGTQVTVSS | low polyreactivity
37 | QVHLVESGGGLVQAGGSLRLSCAASGRTFYYNAMGWYRQEPGKEREFVAAIRYSGSITYYADSVKGRFTISRDNAKNTVYLQMNSLKPEDTAVYYCAADYVSRRYYYWGQGTQVTVSS | high polyreactivity
38 | QDQLVESGGGLVQAGVSLRISCAASGFTFRGNAMGWYRQAPGKERELVAAITSSDDSTYYADSVKGRFTNSRDNAKNTVYLQMNSLKPEDTAVYYCAAVANGYWTYEYWGQGTQVTVSS | low polyreactivity
39 | QVHLVESGGGLVQAGGSLRLSCAASGRTFYLYTMGWYRQAPGKEREFVAIISRSGASTRYADSVKGRFTISRDNAKNTVYLQMNSLKPEDTAVYYCAAYVGYPYDYWGQGTQVTVSS | high polyreactivity
40 | QVQLVESGGGLVQAGGSLRLSCAASGRIFKWYAMGWYRQAPGKEREFVAAINWNGDSTHYADSVKGRFTISRDNAKNTVYLQMNSLKPEDTAVYYCNARVFVTRSYYWGQGTQVTVSS | low polyreactivity
41 | QVQLVESGGGLVQAGGSLRLSCAASGSIFGLYAMGWYRQAPGKERELVATISKSGVSTYYADSVKGRFTISRDNAKNTVYLQMNSLKPEDTAVYYCNADISRDKDFDYWGQGTQVTVSW | low polyreactivity

Source: the nanobody polyreactivity screen of Harvey et al. (2022)
